Laboratory results as given in the RNAGym collection of RNA variant scans (doi:10.1021/acssynbio.7b00057).

B1: Pistol ribozyme (parent)
chain: GGGUCGUUGUUCCAUAAUCGCGUGGAUAUGGCACGCAAGUUUCUACCGGGCACCGUAAAUGUCCGACUGGAGCCGUUCGGGCGGCUAUAAACAGACCUCAGGCCCGAAGCGUGGCGGCACCUGCCGCCGGUGGUAAAAAAGAUCGGAAGAGCACACGUCU

Variants of: B1
Test: aptazyme ON/OFF ratio, guanine; higher = stronger switching; co-transcriptional cleavage with and without guanine

Row | Variant | aptazyme ON/OFF ratio
1 | U7C U10A C12U | 1.09
2 | U7C U10A C12A | 1.22
3 | U7C U10C U11G C12U C13A | 1.16
4 | U7C U10C U11G C12U C13U | 1.16
5 | U7C U10C U11G C12U C13G | 1.41
6 | U7C U10C U11A C12A C13U | 1.3
7 | U7C U10C U11A C12A C13A | 1.49
8 | U7C U10C U11A C12A C13G | 1.26
9 | U7C U8G U10G U11A C12G C13A | 1.1
10 | U7C U8G U10G U11A C12G C13G | 1.21
11 | U7C U8G U10G U11A C12G C13U | 1.14
12 | U7C U8G U10G U11C C12U C13U | 1.37
13 | U7C U8G U10G U11C C12U C13G | 1.21
14 | U7C U8G U10G U11C C12U C13A | 1.33
15 | U7C U10G U11G C13A | 1.15
16 | U7C U10G U11G C13U | 1.22
17 | U7C U10G U11G C13G | 1.13
18 | U7C U10G U11G C12U C13G | 1.1
19 | U7C U10G U11G C12U C13U | 1.3
20 | U7C U10G U11G C12U C13A | 1.13
21 | U7C U10C U11C C12A C13A | 1.25

Row | Variant | aptazyme ON/OFF ratio
22 | U7C U10C U11C C12A C13U | 1.2
23 | U7C U10C U11C C12A C13G | 1.32
24 | U7C U11A C12A C13G | 1.25
25 | U7C U11A C12A C13A | 1.23
26 | U7C U8G U10C U11G C13U | 2.15
27 | U7C U8G U10C U11G C13A | 1.39
28 | U7C U8G U10C U11G C13G | 1.1
29 | U7C U10C U11G C12A C13G | 1.19
30 | U7C U10C U11G C12A C13A | 1.11
31 | U7C U10C U11G C12A C13U | 1.33
32 | U7C U10C U11C C12U C13A | 1.25
33 | U7C U10C U11C C12U C13U | 1.33
34 | U7C U10C U11C C12U C13G | 1.24
35 | U7C U8G U10C U11G C12G | 1.32
36 | U7C U8G U10C U11G C12A | 2.9
37 | U7C U8G U10C U11G C12U | 1.97
38 | U7C U10A U11G C12G | 1.18
39 | U7C U10A U11G C12U | 1.19
40 | U7C U10A U11G C12A | 1.29
41 | U7C U11A | 1.38
42 | U7C U8G U10G U11G C12U C13U | 1.4

Row | Variant | aptazyme ON/OFF ratio
43 | U7C U8G U10G U11G C12U C13G | 1.26
44 | U7C U8G U10G U11G C12U C13A | 1.25
45 | U7C U10C U11G C12G C13G | 1.16
46 | U7C U10C U11G C12G C13A | 1.19
47 | U7C U10C U11G C12G C13U | 1.1
48 | U7C U8G U10G C12U C13A | 1.27
49 | U7C U8G U10G C12U C13U | 1.37
50 | U7C U8G U10G C12U C13G | 1.23
51 | U7C U10G C12U C13U | 1.24
52 | U7C U10G C12U C13G | 1.11
53 | U7C U10G C12U C13A | 1.25
54 | U7C U10A U11C C12G C13U | 1.22
55 | U7C U10A U11C C12G C13A | 1.2
56 | U7C U10A U11C C12G C13G | 1.31
57 | U7C U10A C12A C13U | 1.25
58 | U7C U10A C12A C13A | 1.16
59 | U7C U10A C12A C13G | 1.08
60 | U7C U8G U10G C12G C13G | 1.14
61 | U7C U8G U10G C12G C13A | 1.11
62 | U7C U8G U10G C12G C13U | 1.29
63 | U7C U8G U11G C12A | 1.29

Row | Variant | aptazyme ON/OFF ratio
64 | U7C U8G U11G C12G | 1.1
65 | U7C U8G U11G C12U | 1.19
66 | U7C U10A U11A C12G C13U | 1.17
67 | U7C U10A U11A C12G C13G | 1.33
68 | U7C U10A U11A C12G C13A | 1.11
69 | U7C U10A C13G | 1.05
70 | U7C U10A C13A | 1.06
71 | U7C U10A C13U | 1.04
72 | U7C U10A U11C C12A C13U | 1.1
73 | U7C U10A U11C C12A C13G | 1.12
74 | U7C U10A U11C C12A C13A | 1.1
75 | U7C U8G U11A C12G C13G | 1.11
76 | U7C U8G U11A C12G C13A | 1.11
77 | U7C U8G U11A C12G C13U | 1.09
78 | U7C U8G U10C U11C C12U | 2.76
79 | U7C U10C U11A C12G C13A | 1.15
80 | U7C U10C U11A C12G C13G | 1.15
81 | U7C U10C U11A C12G C13U | 1.15
82 | U7C U8G U11A C12U C13G | 1.09
83 | U7C U8G U11A C12U C13A | 1.09
84 | U7C U8G U11A C12U C13U | 1.12
